Data from paper PMC2865030 (Biochemical Journal, 2008).

B1: Tah1 (TPR-containing protein associated with Hsp90) (natural protein)
chain: MSQFEKQKEQGNSLFKQGLYREAVHCYDQLITAQPQNPVGYSNKAMALIKLGEYTQAIQMCQQGLRYTSTAEHVAIRSKLQYRLELAQGAVGSVQIPVVEVDELPEGYDRS

What was measured:
Assay in all cases: ITC
[1] = target: B1
human Hsp90α = human Hsp90α (human, UniProt P07900 1-732)
[2] = target: human Hsp90β (His-tagged) (human, UniProt P08238 1-724)
[3] = target: yeast Ssa1 (Hsp70, His-tagged) (yeast, UniProt P10591 1-642)
Chain of yeast Ssa1 (Hsp70, His-tagged) (P10591 whole entry): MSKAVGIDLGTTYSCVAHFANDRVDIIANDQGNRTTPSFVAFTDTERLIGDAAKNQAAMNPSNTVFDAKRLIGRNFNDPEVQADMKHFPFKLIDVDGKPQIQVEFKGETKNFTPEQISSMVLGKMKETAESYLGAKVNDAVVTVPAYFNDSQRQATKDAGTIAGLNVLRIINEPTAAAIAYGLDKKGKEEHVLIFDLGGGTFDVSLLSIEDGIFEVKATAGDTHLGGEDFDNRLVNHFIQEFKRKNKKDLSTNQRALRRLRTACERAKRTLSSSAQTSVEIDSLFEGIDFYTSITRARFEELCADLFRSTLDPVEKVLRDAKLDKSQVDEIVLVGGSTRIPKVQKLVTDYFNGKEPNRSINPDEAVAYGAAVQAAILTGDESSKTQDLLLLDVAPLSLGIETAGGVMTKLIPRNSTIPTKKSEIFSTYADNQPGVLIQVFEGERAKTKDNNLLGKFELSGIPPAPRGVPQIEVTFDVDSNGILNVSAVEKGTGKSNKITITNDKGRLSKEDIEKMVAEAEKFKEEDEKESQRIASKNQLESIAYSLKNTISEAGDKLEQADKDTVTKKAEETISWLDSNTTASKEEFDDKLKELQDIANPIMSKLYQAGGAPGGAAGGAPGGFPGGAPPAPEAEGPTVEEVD

Chain of human Hsp90β (His-tagged) (P08238 whole entry): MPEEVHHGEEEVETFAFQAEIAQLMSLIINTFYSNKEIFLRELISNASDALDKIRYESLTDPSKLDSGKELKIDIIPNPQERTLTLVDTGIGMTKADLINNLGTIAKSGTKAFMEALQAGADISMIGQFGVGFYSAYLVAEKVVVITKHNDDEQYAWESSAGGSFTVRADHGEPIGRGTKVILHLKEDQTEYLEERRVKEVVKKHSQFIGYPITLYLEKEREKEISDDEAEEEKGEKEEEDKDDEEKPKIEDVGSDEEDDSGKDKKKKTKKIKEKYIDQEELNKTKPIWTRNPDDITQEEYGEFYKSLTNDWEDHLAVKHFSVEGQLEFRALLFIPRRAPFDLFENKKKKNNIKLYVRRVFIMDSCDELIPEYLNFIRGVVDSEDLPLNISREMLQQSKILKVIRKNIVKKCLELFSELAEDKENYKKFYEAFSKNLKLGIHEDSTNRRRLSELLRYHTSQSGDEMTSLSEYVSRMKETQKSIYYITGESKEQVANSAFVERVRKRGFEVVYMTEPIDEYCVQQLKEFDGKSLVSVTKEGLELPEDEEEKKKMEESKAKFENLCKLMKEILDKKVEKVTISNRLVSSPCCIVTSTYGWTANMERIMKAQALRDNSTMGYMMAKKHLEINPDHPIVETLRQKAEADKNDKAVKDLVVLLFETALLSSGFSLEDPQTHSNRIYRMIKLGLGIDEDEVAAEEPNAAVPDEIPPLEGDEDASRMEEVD

Binder | Kd [1] [µM] | stoichiometry N [1] | also measured
EDASRMEEVD [EDASRMEEVD decapeptide (C-terminal end of human Hsp90β)] | 1 ± 0.19 | 0.81 | –
MEEVD [MEEVD pentapeptide (C-terminal end of yeast Hsp90)] | – | 1.1 | –
VEEVD [VEEVD pentapeptide (C-terminal end of Ssa1)] | 48.8 ± 5.5 | – | –
PTVEEVD [PTVEEVD heptapeptide (C-terminal end of Ssa1)] | 10.6 ± 1.4 | 1 | –
DDTSRMEEVD [DDTSRMEEVD decapeptide (C-terminal end of human Hsp90α)] | 0.9 ± 0.06 | 1.1 | –
B1 | – | – | Kd (human Hsp90α): 330 ± 30 nM; stoichiometry N (human Hsp90α): 1.1; Kd [2]: 340 ± 70 nM; stoichiometry N [2]: 0.84; Kd [3]: 16 ± 2.5 µM
TEMEEVD [TEMEEVD heptapeptide (C-terminal end of yeast Hsp90)] | 0.95 ± 0.04 | 1.2 | –
AEGPTVEEVD [AEGPTVEEVD decapeptide (C-terminal end of Ssa1, wild-type sequence)] | 28.9 ± 3.1 | 1.2 | –
